Data as given in US20240002434A1 (ICHNOS SCIENCES, published 2024).
Values joined by “and” are separate entries in the source; they are usually repeats but may differ in a detail not shown here. Equal values may be shown once. One block for each binder: values may come before it.

Experiments:
Human EGFR-his [1] = biological target: T1, Human EGFR-his (human, UniProt P00533 25-645); experiment: SPR, BEAT®3 captured on Protein G chip, EGFR-his as analyte; sample held at pH 11.2 for 24 h; mean of 2
T1 construct: Soluble his-tagged antigen injected as analyte in SPR; also called hsEGFR; not shown: his tag

Human EGFR-his [2] = biological target: T1, Human EGFR-his; experiment: SPR, BEAT®3 captured on Protein G chip, EGFR-his as analyte; sample held at pH 11.2 for 24 h
Human EGFR-his [3] = biological target: T1, Human EGFR-his; experiment: SPR, BEAT®3 captured on Protein G chip, EGFR-his as analyte; sample held at pH 11.2 for 2 h; mean of 2
Human EGFR-his [4] = biological target: T1, Human EGFR-his; experiment: SPR, BEAT®3 captured on Protein G chip, EGFR-his as analyte; sample held at pH 11.2 for 4 h
Human EGFR-his [5] = biological target: T1, Human EGFR-his; experiment: SPR, BEAT®3 captured on Protein G chip, EGFR-his as analyte; sample held at pH 11.2 for 0 h; mean of 2
Human EGFR-his [6] = biological target: T1, Human EGFR-his; experiment: SPR, BEAT®3 captured on Protein G chip, EGFR-his as analyte; sample held at pH 11.2 for 0 h
Human EGFR-his [7] = biological target: T1, Human EGFR-his; experiment: SPR, BEAT®3 captured on Protein G chip, EGFR-his as analyte; sample held at pH 11.2 for 4 h; mean of 2
Human EGFR-his [8] = biological target: T1, Human EGFR-his; experiment: SPR, BEAT®3 captured on Protein G chip, EGFR-his as analyte; sample held at pH 11.2 for 2 h
Human EGFR-his [9] = biological target: T1, Human EGFR-his; experiment: SPR, BEAT®3 sample captured on Protein G chip, EGFR-his as analyte; mean of 4 reference replicates
[10] = biological target: CD3ε on Jurkat-NFAT responder cells (UniProt P07766 23-207); experiment: cell-based or functional assay
[11] = biological target: EGFR on SK-BR-3 target cells (UniProt P00533 25-1210, limits assumed); experiment: cell-based or functional assay
human CD38 [12] = biological target: T2, human CD38 (human, UniProt P28907 43-300, limits assumed); experiment: surface plasmon resonance; mean KD; high pH hold time 0 h
T2 construct: also called hsCD38; cluster of differentiation 38

human CD38 [13] = biological target: T2, human CD38; experiment: surface plasmon resonance; mean KD; PA eluate without high pH treatment
human CD38 [14] = biological target: T2, human CD38; experiment: surface plasmon resonance; mean KD; high pH hold time 1 h
human CD38 [15] = biological target: T2, human CD38; experiment: surface plasmon resonance; mean KD; high pH hold time 2 h
human CD38 [16] = biological target: T2, human CD38; experiment: binding affinity assay; reference sample, no treatment
human CD38 [17] = biological target: T2, human CD38; experiment: binding affinity assay; sample after S/D treatment, against RS
human CD38 [18] = biological target: T2, human CD38; experiment: binding affinity assay; sample after 0.8M Arg, pH 4.0
human CD38 [19] = biological target: T2, human CD38; experiment: binding affinity assay; sample after 0.8M Arg, pH 5.5
human CD38 [20] = biological target: T2, human CD38; experiment: binding affinity assay; sample after S/D treatment
human CD38 [21] = biological target: T2, human CD38; experiment: binding affinity assay; sample after high pH treatment, against RS
human CD38 [22] = biological target: T2, human CD38; experiment: binding affinity assay; sample after high pH treatment
human CD38 [23] = biological target: T2, human CD38; experiment: binding affinity assay; sample after 0.8M Arg, pH 4.0, against RS
human CD38 [24] = biological target: T2, human CD38; experiment: binding affinity assay; sample after 0.8M Arg, pH 5.5, against RS
human OX40 [25] = biological target: T3, human OX40 (human, UniProt P43489 29-214, limits assumed); experiment: SPR (Biacore), mean KD; Ab1 protein A eluate without high pH treatment (reference)
T3 construct: The construct used in the Biacore assay is not described; also called OX40R; OX40 receptor
T3 sequence (looked up): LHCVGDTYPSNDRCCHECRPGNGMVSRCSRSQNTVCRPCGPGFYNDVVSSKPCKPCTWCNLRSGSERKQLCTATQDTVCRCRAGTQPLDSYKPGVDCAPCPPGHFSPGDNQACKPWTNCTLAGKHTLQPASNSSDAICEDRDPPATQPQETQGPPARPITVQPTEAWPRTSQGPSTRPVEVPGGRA

human FcγR3a [26] = biological target: T4, human FcγR3a (human, UniProt P08637 17-208, limits assumed); experiment: as above
T4 construct: The construct and allotype (V158/F158) used in the Biacore assay are not described; also called FcgR3a

human OX40 [27] = biological target: T3, human OX40; experiment: SPR (Biacore), mean KD; Ab1 brought to pH 11.2 and neutralized at once (t0)
human FcγR3a [28] = biological target: T4, human FcγR3a; experiment: as above
human OX40 [29] = biological target: T3, human OX40; experiment: SPR (Biacore), mean KD; Ab1 after 1 h at pH 11.2
human FcγR3a [30] = biological target: T4, human FcγR3a; experiment: SPR (Biacore), mean KD; Ab1 after 1 h at pH 11.2
human OX40 [31] = biological target: T3, human OX40; experiment: SPR (Biacore), mean KD; Ab1 after 2 h at pH 11.2
human FcγR3a [32] = biological target: T4, human FcγR3a; experiment: SPR (Biacore), mean KD; Ab1 after 2 h at pH 11.2

T4 sequence (P08637 17-208 limits assumed): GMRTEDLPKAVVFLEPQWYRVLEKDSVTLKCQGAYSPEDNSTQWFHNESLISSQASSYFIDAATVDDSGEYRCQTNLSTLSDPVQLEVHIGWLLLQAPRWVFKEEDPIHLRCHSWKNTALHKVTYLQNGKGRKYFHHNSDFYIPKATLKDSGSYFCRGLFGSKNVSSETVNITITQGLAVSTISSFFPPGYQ
Chain of CD3ε on Jurkat-NFAT responder cells (P07766 23-207): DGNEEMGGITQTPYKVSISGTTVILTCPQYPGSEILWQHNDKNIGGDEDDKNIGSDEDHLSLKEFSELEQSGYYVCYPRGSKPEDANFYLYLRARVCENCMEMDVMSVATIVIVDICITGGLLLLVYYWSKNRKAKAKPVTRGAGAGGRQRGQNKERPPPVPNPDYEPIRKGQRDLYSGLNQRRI

Average rel KD (Human EGFR-his [1]): 1.15 ratio to reference
Relative KD R1 (Human EGFR-his [2]): 1.17 ratio to reference
Average rel KD (Human EGFR-his [3]): 1.02 ratio to reference
Relative KD R1 (Human EGFR-his [4]): 1.11 ratio to reference
Average rel KD (Human EGFR-his [5]): 0.98 ratio to reference
Relative KD R1 (Human EGFR-his [6]): 0.988 ratio to reference
Average rel KD (Human EGFR-his [7]): 1.09 ratio to reference
Relative KD R1 (Human EGFR-his [8]): 1.02 ratio to reference
Average rel KD (Human EGFR-his [9]): 1 ratio to reference
Relative potency (%) (Jurkat-NFAT luciferase reporter, EC50reference/EC50sample x 100, reference High pH t0) [10]: 97% and 85% and 67%
Relative potency (%) (Jurkat-NFAT luciferase reporter, EC50reference/EC50sample x 100, reference High pH t0) [11]: 97% and 85% and 67%
B1: BEAT®3 (bispecific antibody, human IgG1, kappa, L234A L235A)
chain 1: EVQLVESGGGLVQPGGSLRLSCAASGFTFNTYAMNWVRQAPGKGLEWVARIRSKYNNYATYYADSVKSRFTISRDDSKNTLYLQMNSLRAEDTAVYYCVRHGNFGNSYVSYFAYWGQGTTVTVSSGGGGSGGGGSGGGGSEIVVTQSPATLSVSPGERATLSCRSSTGAVTESNYANWVQEKPGQAFRGLIGGANKRAPGVPARFSGSLSGDEATLTISSLQSEDFAVYYCALFYSNTWVFGQGTKLEIKGGGGTQVQLQESGPGLVKPSETLSLTCTVSGGSVSSGDYYWTWIRQSPGKGLEWIGHIYYSGNTNYNPSLKSRLTISIDTSKTQFSLKLSSVTAADTAIYYCVRDRVTGAFDIWGQGTMVTVSSASTKGPSVFPLAPSSKSTSGGTAALGCLVKDYFPEPVTVSWNSGALTSGVHTFPAVLQSSGLYSLSSVVTVPSSSLGTQTYICNVNHKPSNTKVDKKVEPKSCDKTHTCPPCPAPEAAGGPSVFLFPPKPKDTLMISRTPEVTCVVVDVSHEDPEVQFKWYVDGVEVHNAKTKPREEQYNSTFRVVSVLTVLHQDWLNGKEYKCKVSNKALPAPIEKTISKTKGQPREPAVYTLPPSREEMTKNQVKLVCLVTGFYPSDIAVEWESSGQPENNYYTTPPMLDSDGSFSLVSWLNVDKSRWQQGNIFSCSVMHEALHNRFTQKSLSLSPG
chain 2: not shown
chain 3: DKTHTCPPCPAPEAAGGPSVFLFPPKPKDTLMISRTPEVTCVVVDVSHEDPEVKFNWYVDGVEVHNAKTKPREEQYNSTYRVVSVLTVLHQDWLNGKEYKCKVSNKALPAPIEKTISKAKGQPREPEVATFPPSRDELTKNQVTLVCLVTGFYPSDIAVEWESNGQPENNYKTDPPLLESDGSFALSSRLRVDKSRWQQGNVFSCSVMHEALHNHYTQKSLSLSPG

Kd (human CD38 [12]): 0.504 nM
Kd (human CD38 [13]): 0.483 nM
Kd (human CD38 [14]): 0.547 nM
Kd (human CD38 [15]): 0.485 nM
% deviation EC50 (human CD38 [16]): 0%
Kd (human CD38 [16]): 0.442 nM
koff (human CD38 [16]): 0.000457 s⁻¹
kon (human CD38 [16]): 1.03e+06 M⁻¹ s⁻¹
% deviation EC50 (human CD38 [17]): -15.4%
Kd (human CD38 [18]): 0.507 nM
koff (human CD38 [18]): 0.000521 s⁻¹
kon (human CD38 [18]): 1.03e+06 M⁻¹ s⁻¹
Kd (human CD38 [19]): 0.439 nM
koff (human CD38 [19]): 0.000459 s⁻¹
kon (human CD38 [19]): 1.05e+06 M⁻¹ s⁻¹
Kd (human CD38 [20]): 0.341 nM
koff (human CD38 [20]): 0.000376 s⁻¹
kon (human CD38 [20]): 1.11e+06 M⁻¹ s⁻¹
% deviation EC50 (human CD38 [21]): 1.7%
Kd (human CD38 [22]): 0.467 nM
koff (human CD38 [22]): 0.000483 s⁻¹
kon (human CD38 [22]): 1.04e+06 M⁻¹ s⁻¹
% deviation EC50 (human CD38 [23]): 3.5%
% deviation EC50 (human CD38 [24]): 0.7%
B2: BEAT®2 (bispecific antibody, human IgG1, kappa, L234A L235A)
chain 1: not shown
chain 2: QVTLKESGPTLVKPTQTLTLTCTFSGLSLSTSGKGVGWIRQPPGKALEWLAHIWWDDDKRYNPALKSRLTITKDTSKNQVVLTMTNMDPVDTATYYCARIELGRSYVMDYWGQGTLVTVSSASTKGPSVFPLAPSSKSTSGGTAALGCLVKDYFPEPVTVSWNSGALTSGVHTFPAVLQSSGLYSLSSVVTVPSSSLGTQTYICNVNHKPSNTKVDKKVEPKSCDKTHTCPPCPAPEAAGGPSVFLFPPKPKDTLMISRTPEVTCVVVDVSHEDPEVQFKWYVDGVEVHNAKTKPREEQYNSTFRVVSVLTVLHQDWLNGKEYKCKVSNKALPAPIEKTISKTKGQPREPAVYTLPPSREEMTKNQVKLVCLVTGFYPSDIAVEWESSGQPENNYYTTPPMLDSDGSFSLVSWLNVDKSRWQQGNIFSCSVMHEALHNRFTQKSLSLSPG
chain 3: not shown

Kd (human OX40 [25]): 198 nM
Kd (human FcγR3a [26]): 689 nM
Kd (human OX40 [27]): 229 nM
Kd (human FcγR3a [28]): 760 nM
Kd (human OX40 [29]): 207 nM
Kd (human FcγR3a [30]): 744 nM
Kd (human OX40 [31]): 224 nM
Kd (human FcγR3a [32]): 638 nM
B3: Ab1 (antibody, human IgG1, kappa)
chain 1: not shown
chain 2: EIVLTQSPATLSLSPGERATLSCRASSSVSYMHWYQQKPGQAPRPWIYATSNRATGIPARFSGSGSGTDYTLTISSLEPEDFAVYYCQQWSSNPWTFGQGTKVEIKRTVAAPSVFIFPPSDEQLKSGTASVVCLLNNFYPREAKVQWKVDNALQSGNSQESVTEQDSKDSTYSLSSTLTLSKADYEKHKVYACEVTHQGLSSPVTKSFNRGEC
notes: The samples PA eluate, t0, t1 and t2 are the same antibody before and after incubation at pH 11.2 for 0, 1 and 2 h; also called humanized IgG1; PA eluate
